Test results published in the supplement of paper PMC6757056.
± gives the standard deviation of the averaged measurements.

B1: library; a variant is named by its letters at N, in order (parent)
chain: GCUGUCACCGAGAAACUGUGAAGUAUAUCUUAAACCUGGGCACUUAAAAGAUAUAUGGAGUUAGUAGUGCAACCUGCUCGGUCUGAUGAGUCCNNNNNNGGACGAAACAGC

What was measured:
[1] = variants of: B1; experiment: normalized RNA/DNA level without ligand (relative to sTRSVctl = 100) (log10 (% of sTRSVctl)); HEK293T; ligand: cyclic di-GMP (c-di-GMP-II aptamer); higher = less ribozyme self-cleavage, higher mRNA level; settings: reporter: mCherry (pCS4076), ligand present: no
In short: (§1)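 Library plasmids carrying ribozyme switches linked to mCherry, or to eGFP in some ligand experiments, were transfected into HEK293T at 4 µg per 6-well well, with any ligand added 1 h earlier. Seventy-two hours on, total RNA was extracted with EDTA and reverse-transcribed, amplified, barcoded and sequenced. RNA level was RNA over DNA reads normalized to a spiked-in non-cleaving sequence or to the top sequences, then scaled and log-transformed. The top set was 25 sequences, the transform was ×100 and log10, and sequences needed ≥100 DNA reads.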

[2] = variants of: B1; experiment: normalized RNA/DNA level with ligand (relative to sTRSVctl = 100) (log10 (% of sTRSVctl)); HEK293T; ligand: cyclic di-GMP (c-di-GMP-II aptamer); ligand concentration (+) RNA-Seq: 1 mM; higher = less ribozyme self-cleavage, higher mRNA level; settings: reporter: mCherry (pCS4076), ligand present: yes
In short: as §1

Variant	normalized RNA/DNA level without ligand (log10) [1]	normalized RNA/DNA level with ligand (log10) [2]
GAGUAU	1.79 ± 0.024	1.86 ± 0.099
GAGUAC	1.8 ± 0.059	1.87 ± 0.11
GAGGGU	1.71 ± 0.024	1.75 ± 0.14
GAGGGC	1.66 ± 0.057	1.82 ± 0.077
GAGGGA	1.65 ± 0.027	1.74 ± 0.083
GAGGGG	1.77 ± 0.056	1.86 ± 0.1
AAGGCG	1.728 ± 0.012	1.83 ± 0.091
AAGGCU	1.71 ± 0.088	1.83 ± 0.22
AAGGCA	1.63 ± 0.05	1.71 ± 0.096
AAGGCC	1.759 ± 0.0039	1.83 ± 0.083
UAUCCU	1.755 ± 0.013	1.87 ± 0.13
UAUCCA	1.77 ± 0.062	1.86 ± 0.097
UAUCCC	1.83 ± 0.0035	1.9 ± 0.055
UAUCCG	1.8 ± 0.022	1.87 ± 0.095
AAUAAC	1.634 ± 0.013	1.8 ± 0.092
AAUAAU	1.63 ± 0.051	1.8 ± 0.077
AAUAAG	1.52 ± 0.064	1.7 ± 0.096
UAGUAC	1.68 ± 0.037	1.8 ± 0.12
UAGUAG	1.7 ± 0.036	1.84 ± 0.1
UAGUAA	1.652 ± 0.0068	1.8 ± 0.12
GAGUCU	1.8 ± 0.07	1.85 ± 0.076
GAGUCC	1.8 ± 0.043	1.88 ± 0.064
GAGUCA	1.82 ± 0.021	1.9 ± 0.085

Variant	normalized RNA/DNA level without ligand (log10) [1]	normalized RNA/DNA level with ligand (log10) [2]
GAGUCG	1.83 ± 0.031	1.88 ± 0.092
CAGCUC	1.7753 ± 0.00068	1.87 ± 0.099
UAUCUC	1.81 ± 0.039	1.9 ± 0.1
UAUCUG	1.725 ± 0.011	1.87 ± 0.089
UAUCUU	1.72 ± 0.054	1.88 ± 0.088
UAUCUA	1.683 ± 0.0069	1.81 ± 0.097
GAUAUA	1.53 ± 0.032	1.7 ± 0.1
GAUAUG	1.52 ± 0.028	1.71 ± 0.096
GAUAUU	1.61 ± 0.019	1.8 ± 0.13
GAUAUC	1.6972 ± 0.0005	1.86 ± 0.12
UAGCUA	1.71 ± 0.038	1.82 ± 0.12
UAGCUG	1.74 ± 0.038	1.86 ± 0.084
UAGCUU	1.68 ± 0.055	1.81 ± 0.073
UAGCUC	1.75 ± 0.022	1.89 ± 0.1
CAUCAU	1.56 ± 0.064	1.72 ± 0.072
CAUCAC	1.67 ± 0.027	1.8 ± 0.069
CAUCAG	1.69 ± 0.044	1.76 ± 0.13
AAGGGC	1.61 ± 0.027	1.75 ± 0.13
CAUCUG	1.76 ± 0.073	1.88 ± 0.13
CAUCUA	1.4 ± 0.058	1.58 ± 0.066
CAUCUU	1.56 ± 0.04	1.75 ± 0.1
GAGCGA	1.735 ± 0.0089	1.85 ± 0.085
GAGCGG	1.88 ± 0.079	1.96 ± 0.096

Variant	normalized RNA/DNA level without ligand (log10) [1]	normalized RNA/DNA level with ligand (log10) [2]
GAUCAC	1.727 ± 0.016	1.84 ± 0.085
GAUCAG	1.8 ± 0.054	1.9 ± 0.13
UAGGUA	1.55 ± 0.018	1.72 ± 0.05
UAGGUU	1.67 ± 0.051	1.82 ± 0.11
UAGGUG	1.58 ± 0.068	1.77 ± 0.093
UAGGUC	1.64 ± 0.032	1.81 ± 0.12
AAGGUC	1.61 ± 0.034	1.75 ± 0.077
UAGCGA	1.61 ± 0.053	1.76 ± 0.095
UAGCGC	1.76 ± 0.019	1.88 ± 0.036
UAGCGU	1.59 ± 0.056	1.72 ± 0.1
UAGCGG	1.8203 ± 0.00054	1.95 ± 0.067
UAGUUA	1.67 ± 0.025	1.83 ± 0.13
UAGUUC	1.71 ± 0.031	1.89 ± 0.057
UAUAUA	1.68 ± 0.076	1.86 ± 0.11
UAUAUU	1.68 ± 0.043	1.86 ± 0.12
UAUAUG	1.71 ± 0.044	1.84 ± 0.12
GAUCCC	1.79 ± 0.027	1.89 ± 0.082
GAUCCA	1.71 ± 0.032	1.85 ± 0.1
GAUCCU	1.7 ± 0.025	1.84 ± 0.13
GAUCCG	1.88 ± 0.068	1.95 ± 0.15
UAUCGC	1.76 ± 0.019	1.83 ± 0.15
UAUCGU	1.67 ± 0.02	1.79 ± 0.095
UAUCGA	1.609 ± 0.0048	1.79 ± 0.12

Variant	normalized RNA/DNA level without ligand (log10) [1]	normalized RNA/DNA level with ligand (log10) [2]
UAUCGG	1.743 ± 0.0093	1.84 ± 0.11
CAGCGC	1.731 ± 0.013	1.87 ± 0.15
CAGCGA	1.49 ± 0.1	1.7 ± 0.055
CAGCGU	1.701 ± 0.011	1.84 ± 0.088
CAGCGG	1.78 ± 0.032	1.9 ± 0.14
UAUACC	1.76 ± 0.053	1.86 ± 0.1
UAUACG	1.75 ± 0.029	1.85 ± 0.11
UAUACA	1.711 ± 0.0027	1.85 ± 0.12
AAUCCG	1.83 ± 0.037	1.93 ± 0.028
AAUCCA	1.65 ± 0.025	1.79 ± 0.088
AAUCCU	1.73 ± 0.073	1.86 ± 0.11
AAUCCC	1.77 ± 0.032	1.86 ± 0.087
UAGGAU	1.58 ± 0.049	1.76 ± 0.078
UAGGAC	1.528 ± 0.015	1.73 ± 0.082
UAGGAG	1.59 ± 0.05	1.76 ± 0.13
GAUAAG	1.54 ± 0.036	1.72 ± 0.1
GAUAAC	1.675 ± 0.0073	1.85 ± 0.1
GAUGAA	1.45 ± 0.1	1.65 ± 0.067
GAUGAC	1.65 ± 0.019	1.82 ± 0.12
GAUGAG	1.55 ± 0.067	1.71 ± 0.059
GAUGAU	1.56 ± 0.064	1.75 ± 0.099
UAUAGG	1.68 ± 0.023	1.85 ± 0.11
UAGUGU	1.62 ± 0.034	1.81 ± 0.13

Variant	normalized RNA/DNA level without ligand (log10) [1]	normalized RNA/DNA level with ligand (log10) [2]
UAGUGC	1.69 ± 0.024	1.82 ± 0.13
GAUAGC	1.64 ± 0.019	1.76 ± 0.14
GAUAGU	1.62 ± 0.045	1.78 ± 0.1
GAUAGG	1.573 ± 0.0085	1.73 ± 0.087
GAUAGA	1.46 ± 0.11	1.64 ± 0.094
AAUGAC	1.63 ± 0.018	1.79 ± 0.081
GAGUGA	1.71 ± 0.033	1.79 ± 0.14
GAGUGC	1.785 ± 0.006	1.86 ± 0.13
GAGUGG	1.84 ± 0.043	1.9 ± 0.12
GAGUGU	1.77 ± 0.049	1.89 ± 0.09
UAGGCC	1.819 ± 0.0024	1.9 ± 0.095
UAGGCA	1.68 ± 0.072	1.84 ± 0.13
UAGGCG	1.768 ± 0.013	1.87 ± 0.12
GAGGAU	1.66 ± 0.022	1.77 ± 0.13
GAGGAA	1.6 ± 0.055	1.72 ± 0.092
GAGGAG	1.752 ± 0.014	1.82 ± 0.081
GAGGAC	1.67 ± 0.053	1.79 ± 0.11
AAUCGG	1.6 ± 0.048	1.76 ± 0.12
AAUCGA	1.49 ± 0.07	1.69 ± 0.094
AAUCGC	1.74 ± 0.018	1.89 ± 0.12
AAUCGU	1.65 ± 0.038	1.81 ± 0.11
CAGUUG	1.76 ± 0.019	1.87 ± 0.11
AAUAUA	1.53 ± 0.054	1.72 ± 0.13
